Consider one molecule from paper PMC7791067, “PLPP/CIN-mediated NF2-serine 10 dephosphorylation regulates F-actin stability and Mdm2 degradation in an activity-dependent manner” (Cell Death & Disease, 2021).

For the assay, the target named is T1, full-length recombinant human NF2, phosphorylated by PKAc (human, UniProt P35240 1-595, phosphoserine at S10 and S518 (phosphorylated by PKAc in vitro)).
T1 sequence (looked up): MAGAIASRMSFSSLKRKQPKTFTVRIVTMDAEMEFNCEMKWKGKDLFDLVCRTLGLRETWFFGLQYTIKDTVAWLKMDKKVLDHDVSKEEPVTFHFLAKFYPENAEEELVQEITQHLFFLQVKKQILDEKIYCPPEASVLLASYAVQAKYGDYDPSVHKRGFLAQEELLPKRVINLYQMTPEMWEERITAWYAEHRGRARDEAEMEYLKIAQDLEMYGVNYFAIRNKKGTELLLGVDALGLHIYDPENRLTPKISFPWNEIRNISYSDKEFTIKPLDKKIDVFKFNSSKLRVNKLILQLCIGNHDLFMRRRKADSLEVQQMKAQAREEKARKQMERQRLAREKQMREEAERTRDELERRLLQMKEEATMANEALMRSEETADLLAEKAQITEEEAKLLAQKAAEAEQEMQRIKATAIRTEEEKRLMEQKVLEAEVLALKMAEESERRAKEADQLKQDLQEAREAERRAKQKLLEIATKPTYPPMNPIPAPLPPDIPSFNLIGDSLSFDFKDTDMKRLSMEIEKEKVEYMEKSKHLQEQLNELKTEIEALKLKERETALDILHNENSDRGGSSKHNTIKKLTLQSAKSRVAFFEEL
Description: cell-based or functional assay.

B1: recombinant human PLPP/CIN (enzyme, UniProt Q96GD0 1-296, looked up)
chain: MARCERLRGAALRDVLGRAQGVLFDCDGVLWNGERAVPGAPELLERLARAGKAALFVSNNSRRARPELALRFARLGFGGLRAEQLFSSALCAARLLRQRLPGPPDAPGAVFVLGGEGLRAELRAAGLRLAGDPSAGDGAAPRVRAVLVGYDEHFSFAKLREACAHLRDPECLLVATDRDPWHPLSDGSRTPGTGSLAAAVETASGRQALVVGKPSPYMFECITENFSIDPARTLMVGDRLETDILFGHRCGMTTVLTLTGVSRLEEAQAYLAAGQHDLVPHYYVESIADLTEGLED
As to B1, the “NF2-S10 phosphorylation (western blot) in the in vitro phosphatase assay with recombinant proteins, after PKAc” value is ~0.63 fold of vehicle level.
